Patent publication US20230212319A1, “NOVEL ANTIGEN BINDING DOMAINS AND SYNTHETIC ANTIGEN RECEPTORS INCORPORATING THE SAME” (University of Southern California, priority 2020, published 2023)

B1: 4089 (protein)
chain: MALPVTALLLPLALLLHAARPDIQMTQSPSSLSASVGDRVTITCKASDHINNWLAWYQQKPGQAPKLLIYGATTLETGVPSRFSGSGSGTDYTLTISSLQPEDFATYYCQQSWNTPWTFGQGTKLEIKRLEDLKNVFPPEVAVFEPSKAEIAHTQKATLVCLATGFYPDHVELSWWVNGKEVHSGVCTDPQPLKEQPALNDSRYCLSSRLRVSATFWQNPRNHFRCQVQFYGLSENDEWTQDRAKPVTQIVSAEAWGRADCGITSASYHQGVLSATILYEILLGKATLYAVLVSALVLMAMVKRKDSRGRAKRSGSGATNFSLLKQAGDVEENPGPTSMDWIWRILFLVGAATGAHSGPQVQLQESGGGLAQAGGSLRLSCAASGRTFSMGWFRQAPGKEREFVAAITYSGGSPYYASSVRGRFTISRDNAKNTVYLQMNSLKPEDTAVYYCAANPTYGSDWNAENWGQGTQVTVSSGSGGGGSGGGGSGGGGSFEQVQLQQPGAELVKPGASVKMSCKASGYAFSSYWINWMKQKPGQGLEWIGQIYPGDGDTNYNGKFKGRATLTADTSSSTAYMQLSSLTSEDSAVYFCARSITTVVGCAMDYWGQGTSVTVSSTRIQNPDPAVYQLRDSKSSDKSVCLFTDFDSQTNVSQSKDSDVYITDKCVLDMRSMDFKSNSAVAWSNKSDFACANAFNNSIIPEDTFFPSSDVPCDVKLVEKSFETDTNLNFQNLSVIGFRILLLKVAGFNLLMTLRLWSSRAKRSGSGVKQTLNFDLLKLAGDVESNPGPSRGHMTEYKPTVRLATRDDVPRAVRTLAAAFADYPATRHTVDPDRHIERVTELQELFLTRVGLDIGKVWVADDGAAVAVWTTPESVEAGAVFAEIGPRMAELSGSRLAAQQQMEGLLAPHRPKEPAWFLATVGVSPDHQGKGLGSAVVLPGVEAAERAGVPAFLETSAPRNLPFYERLGFTVTADVEVPEGPRTWCMTRKPGA
modifications: Synthetic Polynucloetide
B2: 4088 (protein)
chain: MALPVTALLLPLALLLHAARPDIQMTQSPSSLSASVGDRVTITCKASDHINNWLAWYQQKPGQAPKLLIYGATTLETGVPSRFSGSGSGTDYTLTISSLQPEDFATYYCQQSWNTPWTFGQGTKLEIKRLEIQNPDPAVYQLRDSKSSDKSVCLFTDFDSQTNVSQSKDSDVYITDKCVLDMRSMDFKSNSAVAWSNKSDFACANAFNNSIIPEDTFFPSSDVPCDVKLVEKSFETDTNLNFQNLSVIGFRILLLKVAGFNLLMTLRLWSSRAKRSGSGVKQTLNFDLLKLAGDVESNPGPTSMDWIWRILFLVGAATGAHSGPQVQLQESGGGLAQAGGSLRLSCAASGRTFSMGWFRQAPGKEREFVAAITYSGGSPYYASSVRGRFTISRDNAKNTVYLQMNSLKPEDTAVYYCAANPTYGSDWNAENWGQGTQVTVSSGSGGGGSGGGGSGGGGSFEQVQLQQPGAELVKPGASVKMSCKASGYAFSSYWINWMKQKPGQGLEWIGQIYPGDGDTNYNGKFKGRATLTADTSSSTAYMQLSSLTSEDSAVYFCARSITTVVGCAMDYWGQGTSVTVSSTREDLKNVFPPEVAVFEPSKAEIAHTQKATLVCLATGFYPDHVELSWWVNGKEVHSGVCTDPQPLKEQPALNDSRYCLSSRLRVSATFWQNPRNHFRCQVQFYGLSENDEWTQDRAKPVTQIVSAEAWGRADCGITSASYHQGVLSATILYEILLGKATLYAVLVSALVLMAMVKRKDSRGRAKRSGSGATNFSLLKQAGDVEENPGPSRGHMTEYKPTVRLATRDDVPRAVRTLAAAFADYPATRHTVDPDRHIERVTELQELFLTRVGLDIGKVWVADDGAAVAVWTTPESVEAGAVFAEIGPRMAELSGSRLAAQQQMEGLLAPHRPKEPAWFLATVGVSPDHQGKGLGSAVVLPGVEAAERAGVPAFLETSAPRNLPFYERLGFTVTADVEVPEGPRTWCMTRKPGA
modifications: Synthetic Polynucloetide

Legend:
RAJI cells = assay: JNG (Jurkat NFAT-GFP) cells expressing SAR: GFP induction on co-culture with RAJI
RS411 cells = type: cell-based
DAUDI (CD20+) cells = type: cell-based

Molecule	GFP induction (JNG-GFP induction assay), RAJI WT (RAJI cells)	GFP induction (JNG-GFP induction assay), RS;411 (RS411 cells)	GFP induction (JNG-GFP induction assay), DAUDI (DAUDI (CD20+) cells)
B1	positive	highly positive	highly positive
B2	positive	highly positive	highly positive
